Reference: patent publication US20120316071A1 (published 2012)
Where a chain is given by its changes, count along the chain named. Names may count otherwise.

T1: rHuman Erythropoietin R/Fc Chimera, CF (R&D Systems Cat#963-ER) (human, UniProt P19235 25-250)
T1 construct: Bought protein; also called EPO R; EPO R/Fc; Fc part of the bought chimera not given
T1 sequence (looked up): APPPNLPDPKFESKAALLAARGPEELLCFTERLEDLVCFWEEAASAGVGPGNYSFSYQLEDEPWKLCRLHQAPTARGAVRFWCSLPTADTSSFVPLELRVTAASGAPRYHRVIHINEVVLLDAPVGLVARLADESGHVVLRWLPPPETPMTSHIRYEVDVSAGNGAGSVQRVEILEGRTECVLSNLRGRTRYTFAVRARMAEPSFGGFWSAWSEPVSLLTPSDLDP

B1: Fab VH1-46_IGHD6-6*01_IGHJ1*01 S102A/S103P/S104F (APF) & L6_IGKJ1*01 S30R (Fab, V domains shown)
VH: QVQLVQSGAEVKKPGASVKVSCKASGYTFTSYYMHWVRQAPGQGLEWMGIINPSGGSTSYAQKFQGRVTMTRDTSTSTVYMELSSLRSEDTAVYYCAREEYAPFSAEYFQHWGQGTLVTVSS
VL: EIVLTQSPATLSLSPGERATLSCRASQSVRSYLAWYQQKPGQAPRLLIYDASNRATGIPARFSGSGSGTDFTLTISSLEPEDFAVYYCQQRSNWPPWTFGQGTKVEIKR
notes: Tested as Fab made in E. coli; The heavy chain vector (Plasmid A) adds CH1 with His and Flag tags, the kappa vector (Plasmid C) adds CL kappa; also called APF / S30R
B2: Fab VH1-46_IGHD6-6*01_IGHJ1*01 S102A/S103P/S104F/H111F/G56A & L6_IGKJ1*01 S28N/S30D/S31H (Fab, V domains shown)
VH: B1 VH with G56A, H111F
VL: B1 VL with S28N, R30D, S31H
notes: Tested as a Fab; also called H:APFF G56A & L:NDH
B3: Fab VH1-46_IGHD6-6*01_IGHJ1*01 S102A/S103P/S104F/H111F/G56A & L6_IGKJ1*01 (Fab, V domains shown)
VH: B1 VH with G56A, H111F
VL: not shown
notes: Tested as a Fab; also called APFF G56A & Parent
B4: Fab VH1-46_IGHD6-6*01_IGHJ1*01 S102A/S103P/S104F (APF) & L6_IGKJ1*01 S30T (Fab, V domains shown)
VH: B1 VH
VL: B1 VL with R30T
notes: Tested as Fab made in E. coli; The heavy chain vector (Plasmid A) adds CH1 with His and Flag tags, the kappa vector (Plasmid C) adds CL kappa; also called APF / S30T
B5: Fab VH1-46_IGHD6-6*01_IGHJ1*01 S102A/S103P/S104F/H111F & L6_IGKJ1*01 S28N/S30D/S31H (Fab, V domains shown)
VH: B1 VH with H111F
VL: B1 VL with S28N, R30D, S31H
notes: Tested as a Fab; also called H:APFF & L:NDH; APFF-NDH
B6: Fab VH1-46_IGHD6-6*01_IGHJ1*01 S102A/S103P/S104F/H111F & L6_IGKJ1*01 S30D (Fab, V domains shown)
VH: B1 VH with H111F
VL: B1 VL with R30D
notes: Tested as a Fab; also called APFF & S30D
B7: Fab VH1-46_IGHD6-6*01_IGHJ1*01 S102A/S103P/S104F/H111F/S54A & L6_IGKJ1*01 S28N/S30D/S31H (Fab, V domains shown)
VH: B1 VH with S54A, H111F
VL: B1 VL with S28N, R30D, S31H
notes: Tested as a Fab; also called H:APFF S54A & L:NDH
B8: Fab VH1-46_IGHD6-6*01_IGHJ1*01 S102A/S103P/S104F/H111F & L6_IGKJ1*01 S28H (Fab, V domains shown)
VH: B1 VH with H111F
VL: B1 VL with S28H, R30S
notes: Tested as a Fab; also called APFF & S28H
B9: Fab VH1-46_IGHD6-6*01_IGHJ1*01 S102A/S103P/S104F/H111F & L6_IGKJ1*01 S31H (Fab, V domains shown)
VH: B1 VH with H111F
VL: B1 VL with R30S, S31H
notes: Tested as a Fab; also called APFF & S31H
B10: Fab VH1-46_IGHD6-6*01_IGHJ1*01 S102A/S103P/S104F/H111F & L6_IGKJ1*01 S28N (Fab, V domains shown)
VH: B1 VH with H111F
VL: B1 VL with S28N, R30S
notes: Tested as a Fab; also called APFF & S28N

Columns and labels:
[1] = molecular target: T2, rHuman HGF R/c-MET/Fc Chimera, CF (R&D Systems Cat#358-MT/CF) (human, UniProt P08581 25-932); test: ECL multispot (MSD) assay; antigen spotted on plate, Fab in solution;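 note: purified Fab incubated 1 hour at 20 °C in 1% BSA TBST on antigen-coated wells, detected with TAG antibody, ECL read on Sector Imager 2400, compared to each well's blank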
T2 construct: Bought protein; also called HGF R/Fc; hepatocyte growth factor receptor; Fc part of the bought chimera not given

[2] = molecular target: T3, rHuman CD44/Fc Chimera, CF (R&D Systems Cat#3660-CD) (human, UniProt P16070 21-220); test: as above
T3 construct: Bought protein; Fc part of the bought chimera not given

[3] = molecular target: T4, rHuman IGF-1 sR, (IGF-1 sR), CF (R&D Systems Cat#391-GR) (human, UniProt P08069 31-932); test: as above
T4 construct: Bought soluble receptor; also called insulin-like growth factor-1 soluble receptor

[4] = molecular target: T5, rHuman ErbB2/Fc Chimera, CF (R&D Systems Cat#1129-ER) (human, UniProt P04626 23-652); test: as above
T5 construct: Bought protein; also called human epidermal growth factor 2 receptor; Fc part of the bought chimera not given

[5] = molecular target: T6, rHuman EGF R/Fc Chimera, CF (R&D Systems Cat#344-ER) (human, UniProt P00533 25-645); test: as above
T6 construct: Bought protein; also called epidermal growth factor receptor; Fc part of the bought chimera not given

[6] = molecular target: T1, rHuman Erythropoietin R/Fc Chimera, CF …; test: as above
[7] = molecular target: T7, rHuman Notch-1/Fc Chimera, CF (R&D Systems Cat#3647-TK) (human, UniProt P46531 19-526); test: as above
T7 construct: Bought protein; Fc part of the bought chimera not given

[8] = molecular target: T8, Recombinant Human DLL4 (R&D Systems Cat#1506-D4/CF) (human, UniProt Q9NR61 27-524); test: as above
T8 construct: Bought recombinant protein; also called delta-like protein 4; rHuman DLL4

[9] = molecular target: T9, rHuman P-Cadherin/Fc Chimera, CF (R&D Systems Cat#861-PC) (human, UniProt P22223 108-654); test: as above
T9 construct: Bought protein; Fc part of the bought chimera not given

[10] = molecular target: T10, Recombinant Human DLL4 (delta-like protein 4) (human, UniProt Q9NR61 27-524); test: ELISA, DLL4 coated on plate, Fab at 0 nM (no-Fab background)
T10 construct: Bought recombinant human DLL4 (R&D Systems Cat#1506-D4/CF); also called rHuman DLL4; Delta-like 4

[11] = molecular target: T10, Recombinant Human DLL4 (delta-like …); test: ELISA, DLL4 coated on plate, Fab at 75 nM
[12] = molecular target: T10, Recombinant Human DLL4 (delta-like …); test: ELISA, DLL4 coated on plate, Fab at 100 nM
[13] = molecular target: T10, Recombinant Human DLL4 (delta-like …); test: ELISA, DLL4 coated on plate, Fab at 50 nM
[14] = molecular target: T10, Recombinant Human DLL4 (delta-like …); test: ELISA, DLL4 coated on plate, Fab at 25 nM (second 25 nM row)
[15] = molecular target: T10, Recombinant Human DLL4 (delta-like …); test: ELISA, DLL4 coated on plate, Fab at 0 nM (no-Fab background, second 0 row)
[16] = molecular target: T10, Recombinant Human DLL4 (delta-like …); test: ELISA, DLL4 coated on plate, Fab at 200 nM
[17] = molecular target: T10, Recombinant Human DLL4 (delta-like …); test: ELISA, DLL4 coated on plate, Fab at 25 nM (first 25 nM row)
[18] = molecular target: T10, Recombinant Human DLL4 (delta-like …); test: ELISA, DLL4 coated on plate, Fab at 0 nM (no-Fab background, first 0 row)
[19] = molecular target: T10, Recombinant Human DLL4 (delta-like …); test: ELISA, DLL4 coated on plate, Fab at 100 nM; remark: listed apart in the source
[20] = molecular target: T10, Recombinant Human DLL4 (delta-like …); test: ELISA, DLL4 coated on plate, Fab at 400 nM
[21] = molecular target: T10, Recombinant Human DLL4 (delta-like …); test: ELISA, DLL4 coated on plate, Fab at 50 nM; remark: listed apart in the source

T2 sequence (P08581 25-932, change not shown): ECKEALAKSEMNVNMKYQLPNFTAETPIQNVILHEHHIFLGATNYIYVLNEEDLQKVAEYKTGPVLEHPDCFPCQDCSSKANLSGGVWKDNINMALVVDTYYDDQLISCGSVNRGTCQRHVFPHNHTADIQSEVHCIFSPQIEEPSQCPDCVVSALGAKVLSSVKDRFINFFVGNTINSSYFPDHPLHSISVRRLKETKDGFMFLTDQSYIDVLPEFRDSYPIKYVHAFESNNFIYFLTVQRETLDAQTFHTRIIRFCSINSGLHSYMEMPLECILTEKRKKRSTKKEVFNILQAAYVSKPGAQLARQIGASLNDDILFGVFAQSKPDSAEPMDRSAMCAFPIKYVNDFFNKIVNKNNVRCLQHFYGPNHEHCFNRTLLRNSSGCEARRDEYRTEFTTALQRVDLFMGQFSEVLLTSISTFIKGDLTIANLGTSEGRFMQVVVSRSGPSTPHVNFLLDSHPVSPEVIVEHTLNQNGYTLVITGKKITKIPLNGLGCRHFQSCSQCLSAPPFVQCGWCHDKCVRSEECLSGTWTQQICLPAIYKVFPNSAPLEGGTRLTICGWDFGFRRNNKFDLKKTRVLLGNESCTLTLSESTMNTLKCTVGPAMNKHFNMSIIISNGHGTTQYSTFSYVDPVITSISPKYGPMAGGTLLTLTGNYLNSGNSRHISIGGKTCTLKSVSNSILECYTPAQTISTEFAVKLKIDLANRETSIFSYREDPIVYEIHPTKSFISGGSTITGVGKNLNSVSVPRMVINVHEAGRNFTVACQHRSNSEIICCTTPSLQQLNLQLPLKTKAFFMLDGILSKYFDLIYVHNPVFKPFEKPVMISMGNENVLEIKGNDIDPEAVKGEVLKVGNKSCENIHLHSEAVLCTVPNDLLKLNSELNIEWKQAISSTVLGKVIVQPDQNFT

| Binder | ELISA signal [10] | ELISA signal [11] | ELISA signal [12] | ELISA signal [13] | ELISA signal [14] | ELISA signal [15] | ELISA signal [16] | ELISA signal [17] | ELISA signal [18] | ELISA signal [19] | ELISA signal [20] | ELISA signal [21] | further results |
| --- | --- | --- | --- | --- | --- | --- | --- | --- | --- | --- | --- | --- | --- |
| B1 |  |  |  |  |  |  |  |  |  |  |  |  | ECL signal [1]: 108 ECL signal; ECL signal [2]: 89 ECL signal; ECL signal [3]: 86 ECL signal; ECL signal [4]: 35 ECL signal; ECL signal [5]: 140 ECL signal; ECL signal [6]: 87 ECL signal; ECL signal [7]: 155 ECL signal; ECL signal [8]: 745 ECL signal; ECL signal [9]: 39 ECL signal |
| B2 | 0.002 | 0.543 | 0.453 | 0.366 |  |  |  |  |  |  |  |  |  |
| B3 | 0.002 | 0.399 | 0.338 | 0.301 |  |  |  |  |  |  |  |  |  |
| B4 |  |  |  |  |  |  |  |  |  |  |  |  | ECL signal [1]: 297 ECL signal; ECL signal [2]: 229 ECL signal; ECL signal [3]: 204 ECL signal; ECL signal [4]: 243 ECL signal; ECL signal [5]: 274 ECL signal; ECL signal [6]: 207 ECL signal; ECL signal [7]: 127 ECL signal; ECL signal [8]: 1020 ECL signal; ECL signal [9]: 195 ECL signal |
| B5 | 0.002 | 0.268 | 0.259 | 0.202 |  |  |  |  |  |  |  |  |  |
| B6 |  |  |  |  | 0.03 | 0.01 | 0.11 | 0.03 | 0 | 0.09 | 0.13 | 0.06 |  |
| B7 | 0 | 0.212 | 0.213 | 0.154 |  |  |  |  |  |  |  |  |  |
| B8 |  |  |  |  | 0.03 | 0 | 0.14 | 0.03 | 0.01 | 0.09 | 0.13 | 0.05 |  |
| B9 |  |  |  |  | 0.03 | 0 | 0.11 | 0.03 | 0 | 0.09 | 0.2 | 0.05 |  |
| B10 |  |  |  |  | 0.05 | 0 | 0.17 | 0.04 | 0 | 0.13 | 0.19 | 0.07 |  |
